Measurements reported in PMC6450059.
pKd: −log10 of the molar value.

Columns and labels:
[1] = molecular target: Suppressor of copper sensitivity protein C from Proteus mirabilis (PmScsC) (Proteus mirabilis); assay: SAXS; native PmScsC, concentration series 0.1-10.0 mg ml^-1 in 10 mM HEPES pH 7.4, 150 mM NaCl, 283 K; linear combination of monomer and trimer scattering curves, global (common K t) and independent optimization; K t: monomers and trimer
[2] = molecular target: PmScsCΔLinker (Proteus mirabilis); assay: SAXS; PmScsCΔLinker, concentration series 0.1-10.0 mg ml^-1 in 10 mM HEPES pH 7.4, 150 mM NaCl, 283 K; linear combination of monomer, dimer and trimer scattering curves, global (common K d and K t) and independent optimization; K d: monomers and dimer; K t: monomer, dimer and trimer
[3] = molecular target: PmScsCΔLinker (Proteus mirabilis); assay: crystal structure; PmScsCΔLinker 40 mg ml^-1 in 10 mM HEPES pH 7.4, 150 mM NaCl; 0.1 M HEPES pH 7, 32%(v/v) Jeffamine M-600; 293 K; space group H32, one protomer in the asymmetric unit, trimer through crystallographic symmetry

Substance: Suppressor of copper sensitivity protein C from Proteus mirabilis (PmScsC) (enzyme)
- K t (equilibrium constant for trimer formation, monomers and trimer) [1]: 6.3e-18 M^2
- monomer fraction at 0.1 mg/ml (global optimization) [1]: 0.01
- monomer fraction at 0.1 mg/ml (independent optimization) [1]: 0.21
- monomer fraction at 0.5 mg/ml (global optimization) [1]: 0
- monomer fraction at 0.5 mg/ml (independent optimization) [1]: 0.04
- monomer fraction at 2.0 mg/ml (global optimization) [1]: 0
- monomer fraction at 2.0 mg/ml (independent optimization) [1]: 0
- monomer fraction at 5.0 mg/ml (global optimization) [1]: 0
- monomer fraction at 5.0 mg/ml (independent optimization) [1]: 0
- monomer fraction at 10.0 mg/ml (global optimization) [1]: 0
- monomer fraction at 10.0 mg/ml (independent optimization) [1]: 0
- stoichiometry N [1]: 3
- trimer fraction at 0.1 mg/ml (global optimization) [1]: 0.99
- trimer fraction at 0.1 mg/ml (independent optimization) [1]: 0.79
- trimer fraction at 0.5 mg/ml (global optimization) [1]: 1
- trimer fraction at 0.5 mg/ml (independent optimization) [1]: 0.96
- trimer fraction at 2.0 mg/ml (global optimization) [1]: 1
- trimer fraction at 2.0 mg/ml (independent optimization) [1]: 1
- trimer fraction at 5.0 mg/ml (global optimization) [1]: 1
- trimer fraction at 5.0 mg/ml (independent optimization) [1]: 1
- trimer fraction at 10.0 mg/ml (global optimization) [1]: 1
- trimer fraction at 10.0 mg/ml (independent optimization) [1]: 1

Substance: PmScsCΔLinker (enzyme)
- K t (equilibrium constant for trimer formation, from monomer and dimer) [2]: 730 µM
- pKd [2]: 3.68
- dimer fraction at 0.1 mg/ml (global optimization) [2]: 0.03
- dimer fraction at 0.1 mg/ml (independent optimization) [2]: 0
- dimer fraction at 0.5 mg/ml (global optimization) [2]: 0.12
- dimer fraction at 0.5 mg/ml (independent optimization) [2]: 0
- dimer fraction at 2.0 mg/ml (global optimization) [2]: 0.27
- dimer fraction at 2.0 mg/ml (independent optimization) [2]: 0.33
- dimer fraction at 5.0 mg/ml (global optimization) [2]: 0.41
- dimer fraction at 5.0 mg/ml (independent optimization) [2]: 0.37
- dimer fraction at 10.0 mg/ml (global optimization) [2]: 0.48
- dimer fraction at 10.0 mg/ml (independent optimization) [2]: 0.49
- monomer fraction at 0.1 mg/ml (global optimization) [2]: 0.97
- monomer fraction at 0.1 mg/ml (independent optimization) [2]: 1
- monomer fraction at 0.5 mg/ml (global optimization) [2]: 0.88
- monomer fraction at 0.5 mg/ml (independent optimization) [2]: 0.94
- monomer fraction at 2.0 mg/ml (global optimization) [2]: 0.71
- monomer fraction at 2.0 mg/ml (independent optimization) [2]: 0.67
- monomer fraction at 5.0 mg/ml (global optimization) [2]: 0.53
- monomer fraction at 5.0 mg/ml (independent optimization) [2]: 0.55
- monomer fraction at 10.0 mg/ml (global optimization) [2]: 0.4
- monomer fraction at 10.0 mg/ml (independent optimization) [2]: 0.37
- trimer fraction at 0.1 mg/ml (global optimization) [2]: 0
- trimer fraction at 0.1 mg/ml (independent optimization) [2]: 0
- trimer fraction at 0.5 mg/ml (global optimization) [2]: 0
- trimer fraction at 0.5 mg/ml (independent optimization) [2]: 0.06
- trimer fraction at 2.0 mg/ml (global optimization) [2]: 0.02
- trimer fraction at 2.0 mg/ml (independent optimization) [2]: 0
- trimer fraction at 5.0 mg/ml (global optimization) [2]: 0.07
- trimer fraction at 5.0 mg/ml (independent optimization) [2]: 0.08
- trimer fraction at 10.0 mg/ml (global optimization) [2]: 0.12
- trimer fraction at 10.0 mg/ml (independent optimization) [2]: 0.1
- stoichiometry N [3]: 3
